From paper PMC7112112

Tests used:
[1] = plaque size and shape, Vero cells; conditions: glycan lost; control: WTrIBV
[2] = RT-qPCR of IBV gRNA and sgRNA2; conditions: glycan lost; control: WTrIBV
[3] = indirect immunofluorescence, infected Vero cells; conditions: glycan lost; control: WTrIBV
[4] = 20-60% sucrose gradient ultracentrifugation, anti-M blot; conditions: glycan lost; control: WTrIBV
[5] = growth curve, TCID50, Vero cells; conditions: glycan lost; control: WTrIBV
[6] = co-expression with E in COS-7, pelleted VLP blot; conditions: glycan lost; control: MWT

B1: IBV M protein (membrane protein): rN3D/N6D (protein)
parent chain: MPNETNCTLDFEQSVQLFKEYNLFITAFLLFLTIILQYGYATRSKVIYTLKMIVLWCFWPLNIAVGVISCTYPPNTGGLVAAIILTVFACLSFVGYWIQSIRLFKRCRSWWSFNPESNAVGSILLTNGQQCNFAIESVPMVLSPIIKNGVLYCEGQWLAKCEPDHLPKDIFVCTPDRRNIYRMVQKYTGDQSGNKKRFATFVYAKQSVDTGELESVATGGSSLYT
no change: other: viral replication [1] | other: viral replication [2] | localisation_or_trafficking [3] | other: virion sedimentation [4] | other: viral replication [5]

B2: IBV M protein (membrane protein): MN3D/N6D (protein)
parent chain: MPNETNCTLDFEQSVQLFKEYNLFITAFLLFLTIILQYGYATRSKVIYTLKMIVLWCFWPLNIAVGVISCTYPPNTGGLVAAIILTVFACLSFVGYWIQSIRLFKRCRSWWSFNPESNAVGSILLTNGQQCNFAIESVPMVLSPIIKNGVLYCEGQWLAKCEPDHLPKDIFVCTPDRRNIYRMVQKYTGDQSGNKKRFATFVYAKQSVDTGELESVATGGSSLYT
no change: other: VLP formation [6]
